B1: EGF: human Epidermal Growth Factor (Sigma-Aldrich) (protein, UniProt P01133 23-1207, looked up)
Pro-epidermal growth factor: PQHWSCPEGTLAGNGNSTCVGPAPFLIFSHGNSIFRIDTEGTNYEQLVVDAGVSVIMDFHYNEKRIYWVDLERQLLQRVFLNGSRQERVCNIEKNVSGMAINWINEEVIWSNQQEGIITVTDMKGNNSHILLSALKYPANVAVDPVERFIFWSSEVAGSLYRADLDGVGVKALLETSEKITAVSLDVLDKRLFWIQYNREGSNSLICSCDYDGGSVHISKHPTQHNLFAMSLFGDRIFYSTWKMKTIWIANKHTGKDMVRINLHSSFVPLGELKVVHPLAQPKAEDDTWEPEQKLCKLRKGNCSSTVCGQDLQSHLCMCAEGYALSRDRKYCEDVNECAFWNHGCTLGCKNTPGSYYCTCPVGFVLLPDGKRCHQLVSCPRNVSECSHDCVLTSEGPLCFCPEGSVLERDGKTCSGCSSPDNGGCSQLCVPLSPVSWECDCFPGYDLQLDEKSCAASGPQPFLLFANSQDIRHMHFDGTDYGTLLSQQMGMVYALDHDPVENKIYFAHTALKWIERANMDGSQRERLIEEGVDVPEGLAVDWIGRRFYWTDRGKSLIGRSDLNGKRSKIITKENISQPRGIAVHPMAKRLFWTDTGINPRIESSSLQGLGRLVIASSDLIWPSGITIDFLTDKLYWCDAKQSVIEMANLDGSKRRRLTQNDVGHPFAVAVFEDYVWFSDWAMPSVMRVNKRTGKDRVRLQGSMLKPSSLVVVHPLAKPGADPCLYQNGGCEHICKKRLGTAWCSCREGFMKASDGKTCLALDGHQLLAGGEVDLKNQVTPLDILSKTRVSEDNITESQHMLVAEIMVSDQDDCAPVGCSMYARCISEGEDATCQCLKGFAGDGKLCSDIDECEMGVPVCPPASSKCINTEGGYVCRCSEGYQGDGIHCLDIDECQLGEHSCGENASCTNTEGGYTCMCAGRLSEPGLICPDSTPPPHLREDDHHYSVRNSDSECPLSHDGYCLHDGVCMYIEALDKYACNCVVGYIGERCQYRDLKWWELRHAGHGQQQKVIVVAVCVVVLVMLLLLSLWGAHYYRTQKLLSKNPKNPYEESSRDVRSRRPADTEDGMSSCPQPWFVVIKEHQDLKNGGQPVAGEDGQAADGSMQPTSWRQEPQLCGMGTEQGCWIPVSSDKGSCPQVMERSFHMPSYGTQTLEGGVEKPHSLLSANPLWQQRALDPPHQMELTQ
modifications: Pro-epidermal growth factor
B2: KGF: Keratinocyte growth factor, a member of the fibroblast growth factor family (protein, UniProt P21781 32-194, looked up)
Fibroblast growth factor 7: CNDMTPEQMATNVNCSSPERHTRSYDYMEGGDIRVRRLFCRTQWYLRIDKRGKVKGTQEMKNNYNIMEIRTVAVGIVAIKGVESEFYLAMNKEGKLYAKKECNEDCNFKELILENHYNTYASAKWTHNGGEMFVALNQKGIPVRGKKTKKEQKTAHFLPMAIT

Legend:
Type in all cases: cell-based
human airway epithelia = test: Confocal imaging of DIG-labeled siRNA uptake in human airway epithelia; conditions: EGF 100 μg/ml for 15 min, imaged 2 h after transfection, vs untreated cells (data not shown)
Experimental: The primary human airway epithelia grown at air-liquid interface were transfected with the DIG-labeled siRNA at a concentration of 250 ng/ml after complexing with Transductin. The transfection mixture was left on the apical surface for 2 h. At the end of this period, the cells were fixed in 2% formaldehyde, permeabilized in 0.2% Triton-x-100 and blocked in 1% BSA for 1 h. The cells were then stained with mouse antibody to DIG (Roche Biochemicals) for 1 h followed by either Alexa 488 labeled goat anti-mouse secondary antibody for 1 h followed by Alexa 488 labeled rabbit […] antibody (Invitrogen) for 1 or in some cases with Alexa 564 goat anti-mouse secondary antibody for 1 h. The cells were finally stained with nuclear stain, ToPro 3 for 10 minutes. The filter, containing the cells, was removed from the culture insert by cutting the edges with razor blade and then mounted onto a slide by the use of Vectashield. The slide was visualized by confocal microscopy.

HPRT mRNA [1] = test: Pretreatment of well-differentiated human airway epithelia before HPRT siRNA transfection, qPCR
Experimental: (§1) For airway epithelia that were either well or poorly differentiated, transfection was done mostly according to the manufacturer's protocol. In all cases, the apical surface of epithelia was washed twice with PBS before adding the transfection mixture to the apical surface. The mixture was then left on the cells for 24 h for all transfection reagents. For PK1 cells, reverse transfection was performed in a 48-well plate by first adding the siRNA-RNAiMAX reagent mixture onto the plate and then adding the dispersed cells (40,000 cells) on top of the mixture and allowing the cells to adhere and establish growth for 24 h. […]
(§2) Total RNA was isolated using SV96 RNA isolation kit (Promega), according to manufacturer's protocol. […] One-fifteenth of the cDNA was then amplified and analyzed by Taqman assay in the 7900 Real Time PCR System (Applied Biosystems) using synthesized primer-probe pairs (IDT, Coralville, Iowa), reaction buffer and Immolase DNA polymerase (Bioline, Taunton, Mass.). […] Absolute quantification of an mRNA target sequence within an unknown sample was determined by reference to a standard curve. […]
(§3) Wortmannin was purchased from Sigma (St. Louis, Mo.) as a ready to use solution. […]

HPRT mRNA [2] = test: Pretreatment of well differentiated pig airway epithelia before HPRT siRNA transfection, qPCR; conditions: well differentiated PAE; KGF 50 ng/ml 24 h, EGTA 6 mM 30 m, LLnL 40 μM 24 hrs; then 250 nM HPRT siRNA with RNAiMAX or Transductin
Experimental: as §1, §2, §3

Molecule | uptake of the DIG signal (human airway epithelia) | decrease in HPRT mRNA levels (HPRT mRNA [1]; human airway cells, EGF 100 μg/ml for 15 min apically before siRNA-Transductin (250 nM), 3 donors) | siRNA uptake and knockdown (HPRT mRNA [1]; pretreatment of the mucosal surface with EGF (200 μg/ml), well differentiated cells, species not stated) | silencing of HPRT mRNA after pretreatment (HPRT mRNA [2])
B1 | increased uptake | 15-20% | enhanced uptake and facilitated siRNA knockdown | 
B2 |  |  |  | did not reduce

Reference: patent US9272016B2, “Methods to enhance RNAi oligonucleotide delivery to respiratory epithelial cells” (University of Iowa Research Foundation, priority 2012, dated 2016)
